T1: mouse pIgR extracellular domain (ECD) (mouse, UniProt O70570 19-645)
T1 construct: Bought from R&D Systems (Cat 2800-PG-050); also called mpIgR ECD
T1 sequence: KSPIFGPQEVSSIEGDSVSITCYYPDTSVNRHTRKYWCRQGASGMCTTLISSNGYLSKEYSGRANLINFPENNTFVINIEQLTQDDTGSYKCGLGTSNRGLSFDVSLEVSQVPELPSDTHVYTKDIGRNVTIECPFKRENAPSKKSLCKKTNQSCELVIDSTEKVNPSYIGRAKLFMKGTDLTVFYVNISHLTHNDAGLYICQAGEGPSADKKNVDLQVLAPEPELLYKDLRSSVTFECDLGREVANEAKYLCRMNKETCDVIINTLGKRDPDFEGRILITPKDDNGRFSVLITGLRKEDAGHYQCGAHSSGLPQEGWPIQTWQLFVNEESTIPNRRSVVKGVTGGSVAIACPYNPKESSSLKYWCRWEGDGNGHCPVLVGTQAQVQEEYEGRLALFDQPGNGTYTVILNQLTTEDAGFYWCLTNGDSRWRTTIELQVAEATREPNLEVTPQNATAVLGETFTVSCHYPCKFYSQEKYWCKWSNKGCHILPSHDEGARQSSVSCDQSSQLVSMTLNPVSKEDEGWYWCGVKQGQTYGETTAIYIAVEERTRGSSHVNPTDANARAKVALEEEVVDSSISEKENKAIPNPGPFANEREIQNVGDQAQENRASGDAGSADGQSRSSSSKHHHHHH

T2: rat pIgR extracellular domain (rat, UniProt P15083 19-643)
T2 construct: extracellular domain
T2 sequence (looked up): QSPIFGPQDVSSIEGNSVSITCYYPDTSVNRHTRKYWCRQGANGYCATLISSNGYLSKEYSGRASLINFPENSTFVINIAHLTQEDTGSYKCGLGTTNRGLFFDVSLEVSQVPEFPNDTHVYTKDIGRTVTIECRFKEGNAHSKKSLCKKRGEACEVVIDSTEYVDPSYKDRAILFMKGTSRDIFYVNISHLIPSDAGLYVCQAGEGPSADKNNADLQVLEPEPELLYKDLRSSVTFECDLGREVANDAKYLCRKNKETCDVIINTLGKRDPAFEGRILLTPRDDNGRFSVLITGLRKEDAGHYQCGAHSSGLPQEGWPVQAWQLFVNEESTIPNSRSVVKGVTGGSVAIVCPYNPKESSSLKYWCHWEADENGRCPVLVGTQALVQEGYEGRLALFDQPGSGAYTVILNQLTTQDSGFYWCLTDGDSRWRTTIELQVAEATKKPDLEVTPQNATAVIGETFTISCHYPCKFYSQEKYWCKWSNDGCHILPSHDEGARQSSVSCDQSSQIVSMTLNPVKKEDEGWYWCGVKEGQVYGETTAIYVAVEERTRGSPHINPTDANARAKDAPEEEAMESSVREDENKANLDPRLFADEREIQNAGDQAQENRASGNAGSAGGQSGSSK


Assays:
Assay in all cases: SPR, VHH captured by anti-Fc, ECD analyte
[1] = biological target: T3, human pIgR extracellular domain (ECD) (human, UniProt P01833 19-638)
T3 construct: Bought from R&D Systems (Cat 2717-PG-050); also called hpIgR ECD
Summary of the method: (§1)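 Single-cycle kinetics: ECD analyte from 30 nM, 3-fold series, low to high, with 30 min off-rate monitoring, over VHH captured at 0.5 ug/ml (~200-300 RU). HBSP plus 100 ug/ml BSA at 30 μL/min. Reference cell and buffer blank subtracted; global 1:1 Langmuir fit gave kon, koff, KD.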

[2] = biological target: T1, mouse pIgR extracellular domain (ECD)
Summary of the method: as §1

[3] = biological target: T4, cynomolgus monkey pIgR extracellular domain (cynomolgus monkey, UniProt A0A2K5WMU9 19-638)
T4 construct: extracellular domain
Summary of the method: as §1

[4] = biological target: T2, rat pIgR extracellular domain
Summary of the method: as §1

T3 sequence (P01833 other isoform, or with tags, fused parts or gaps): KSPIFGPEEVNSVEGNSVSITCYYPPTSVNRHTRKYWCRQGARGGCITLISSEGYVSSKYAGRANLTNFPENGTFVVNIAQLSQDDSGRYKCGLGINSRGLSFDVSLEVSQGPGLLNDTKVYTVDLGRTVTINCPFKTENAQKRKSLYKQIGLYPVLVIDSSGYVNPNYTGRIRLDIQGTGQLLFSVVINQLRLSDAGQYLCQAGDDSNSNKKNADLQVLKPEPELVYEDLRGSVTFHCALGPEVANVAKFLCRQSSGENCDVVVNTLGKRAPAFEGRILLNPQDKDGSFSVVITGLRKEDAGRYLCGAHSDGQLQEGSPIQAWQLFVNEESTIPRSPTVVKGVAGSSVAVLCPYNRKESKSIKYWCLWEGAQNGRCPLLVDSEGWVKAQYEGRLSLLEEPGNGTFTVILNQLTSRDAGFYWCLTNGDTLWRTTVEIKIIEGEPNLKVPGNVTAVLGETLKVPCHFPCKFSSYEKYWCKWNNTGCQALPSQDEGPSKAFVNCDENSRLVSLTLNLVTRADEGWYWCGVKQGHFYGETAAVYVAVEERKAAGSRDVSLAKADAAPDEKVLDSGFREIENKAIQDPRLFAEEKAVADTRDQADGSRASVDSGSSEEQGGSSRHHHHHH
T4 sequence (A0A2K5WMU9 entry or part of it): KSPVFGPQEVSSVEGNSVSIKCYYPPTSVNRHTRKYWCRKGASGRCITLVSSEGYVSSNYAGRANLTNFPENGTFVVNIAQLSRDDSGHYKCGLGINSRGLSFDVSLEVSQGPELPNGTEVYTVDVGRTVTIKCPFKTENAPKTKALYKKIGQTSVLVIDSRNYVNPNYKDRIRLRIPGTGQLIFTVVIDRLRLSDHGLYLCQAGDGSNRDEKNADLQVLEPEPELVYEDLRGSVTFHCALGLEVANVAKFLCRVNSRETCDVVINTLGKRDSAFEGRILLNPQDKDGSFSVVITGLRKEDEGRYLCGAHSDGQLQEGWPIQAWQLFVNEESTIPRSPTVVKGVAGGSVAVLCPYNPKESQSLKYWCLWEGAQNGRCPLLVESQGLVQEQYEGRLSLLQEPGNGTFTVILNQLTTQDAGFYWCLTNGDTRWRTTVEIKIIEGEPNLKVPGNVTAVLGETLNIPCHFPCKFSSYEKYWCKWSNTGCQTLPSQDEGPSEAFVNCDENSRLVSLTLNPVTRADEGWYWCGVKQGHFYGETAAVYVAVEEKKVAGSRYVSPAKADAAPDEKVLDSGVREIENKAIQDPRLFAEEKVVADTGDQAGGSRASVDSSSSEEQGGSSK

Binder | Kd [1] [nM] | Kd [2] [nM] | Kd [3] [nM] | Kd [4] [nM]
01C02R3LS VHH Mono-Fc (Fc fusion) QVQLVESGGGLVQAGDSLRLSCAASGRTRTTYGMGWFRQAPGKEREFVTTITWSGSTNYKYYADSVKGRFTISRDNAKNTVYLQMNSLKPDDTAVYYCAASTVLTDPRVPTEYDYWGQGTQVTVSSSPAPELLGGPSVFLFPPKPKDTLMISRTPEVTCVVVDVSHEDPEVKFNWYVDGVEVHNAKTKPREEQYNSTYRVVSVLTVLHQDWLNGKEYKCKVSNKALPAPIEKTISKAKGQPREPQVYTKPPSREEMTKNQVSLSCLVKGFYPSDIAVEWESNGQPENNYKTTVPVLDSDGSFRLASYLTVDKSRWQQGNVFSCSVMHEALHNHYTQKSLSLSPGK | 8.62 | 4.96 | 3.09 | 2.77
01E10R2 VHH Mono-Fc (Fc fusion) EVQLVESGGGLVQAGGSLRLSCAASGRTLSVDRMGWFRQVPGKEREFIAARTWSGSSTYIYYADSVKGRFAISRDRAKNTIDLQMNSLKLEDTGAYYCAADVRGGSYDVRRDEGYAYWGQGTLVTVSSSPAPELLGGPSVFLFPPKPKDTLMISRTPEVTCVVVDVSHEDPEVKFNWYVDGVEVHNAKTKPREEQYNSTYRVVSVLTVLHQDWLNGKEYKCKVSNKALPAPIEKTISKAKGQPREPQVYTKPPSREEMTKNQVSLSCLVKGFYPSDIAVEWESNGQPENNYKTTVPVLDSDGSFRLASYLTVDKSRWQQGNVFSCSVMHEALHNHYTQKSLSLSPGK |  | 61.8 |  | 96.9
01E01R3LS VHH Mono-Fc (Fc fusion) QVQLVESGGGLVQAGGSLRLSCAASGRSFSSYNMGWFRQAPGKERDLVAVVTWSGGGTSYADSVKGRFTIARDNANARLYLEMTSLKPEDTAIYYCAATQDWYGGTRAFRAASFHSWGQGTQVTVSSSPAPELLGGPSVFLFPPKPKDTLMISRTPEVTCVVVDVSHEDPEVKFNWYVDGVEVHNAKTKPREEQYNSTYRVVSVLTVLHQDWLNGKEYKCKVSNKALPAPIEKTISKAKGQPREPQVYTKPPSREEMTKNQVSLSCLVKGFYPSDIAVEWESNGQPENNYKTTVPVLDSDGSFRLASYLTVDKSRWQQGNVFSCSVMHEALHNHYTQKSLSLSPGK | 14.5 | 34.5 |  | 35.2
01H04R3 VHH Mono-Fc (Fc fusion) EVQLVESGGGLVQPGGSLRLSCAASGRTFSSLTMAWFRRAPGKEREFVAAQKWAGATTYTYYGDSVKGRFTISRDNAKDTVYLQMNSLKPVDTAIYYCAADTSSIVGDPRSPNRYDYWGQGTQVTVSSSPAPELLGGPSVFLFPPKPKDTLMISRTPEVTCVVVDVSHEDPEVKFNWYVDGVEVHNAKTKPREEQYNSTYRVVSVLTVLHQDWLNGKEYKCKVSNKALPAPIEKTISKAKGQPREPQVYTKPPSREEMTKNQVSLSCLVKGFYPSDIAVEWESNGQPENNYKTTVPVLDSDGSFRLASYLTVDKSRWQQGNVFSCSVMHEALHNHYTQKSLSLSPGK |  | 101 |  | 88.2

The next lines start with the values.

Kd [1] [nM] | Kd [2] [nM] | Kd [3] [nM] | Kd [4] [nM] | Binder
8.4 | 3.75 | 2.19 | 1.58 | 01B10R3L VHH Mono-Fc (Fc fusion) QVQLVESGGGLVQAGDSLRLSCAASGRTFTTYVMGWFRQPPGKEREFVATISWSGSTTYKYYADSVKGRFTISRDNAKNTVYLQMNSLKPEDTAVYYCAASTVVADPRAPNEYDYWGQGTQVTVSSSPAPELLGGPSVFLFPPKPKDTLMISRTPEVTCVVVDVSHEDPEVKFNWYVDGVEVHNAKTKPREEQYNSTYRVVSVLTVLHQDWLNGKEYKCKVSNKALPAPIEKTISKAKGQPREPQVYTKPPSREEMTKNQVSLSCLVKGFYPSDIAVEWESNGQPENNYKTTVPVLDSDGSFRLASYLTVDKSRWQQGNVFSCSVMHEALHNHYTQKSLSLSPGK
 | 6.33 |  | 11 | 01B03R2LS VHH Mono-Fc (Fc fusion) EVQLVESGGGLVQAGDSLRLSCAASGRTGSSGAMGWFRQGPGKEREFVAALMWRNTVTYSYYADSVKGRFTISRDNAKNTAYLQMNSLKPEDTAVYYCAADPDTYGDPRNSGAYSYWGQGTLVTVSSSPAPELLGGPSVFLFPPKPKDTLMISRTPEVTCVVVDVSHEDPEVKFNWYVDGVEVHNAKTKPREEQYNSTYRVVSVLTVLHQDWLNGKEYKCKVSNKALPAPIEKTISKAKGQPREPQVYTKPPSREEMTKNQVSLSCLVKGFYPSDIAVEWESNGQPENNYKTTVPVLDSDGSFRLASYLTVDKSRWQQGNVFSCSVMHEALHNHYTQKSLSLSPGK
 | 4.38 |  | 2.37 | 02D07R3 VHH Mono-Fc (Fc fusion) EVQLVESGGGLVQPGGQLRLSCAASGSIASIRDMAWYRQAPGKQRELVAIFARGGTTHYADSVKGRFTISRDNAKNTVYLQVNSLEPEDTAAYYCNAEVATMFQPGFRDYWGRGTQVTVSSSPAPELLGGPSVFLFPPKPKDTLMISRTPEVTCVVVDVSHEDPEVKFNWYVDGVEVHNAKTKPREEQYNSTYRVVSVLTVLHQDWLNGKEYKCKVSNKALPAPIEKTISKAKGQPREPQVYTKPPSREEMTKNQVSLSCLVKGFYPSDIAVEWESNGQPENNYKTTVPVLDSDGSFRLASYLTVDKSRWQQGNVFSCSVMHEALHNHYTQKSLSLSPGK
 | 32.3 |  | 73.5 | 02G06R3 VHH Mono-Fc (Fc fusion) EVQLVESGGGLVQAGGSLRLSCAASGRTFDSYAMGWFRQAPGKEREFVAAISWTGGSTDYADSVKGRFTISRDNAKNTVYLQMDSLKPEDTAVYYCAAEVVGRDVTTMYRVSGLEYEYDYWGQGTQVTVSSSPAPELLGGPSVFLFPPKPKDTLMISRTPEVTCVVVDVSHEDPEVKFNWYVDGVEVHNAKTKPREEQYNSTYRVVSVLTVLHQDWLNGKEYKCKVSNKALPAPIEKTISKAKGQPREPQVYTKPPSREEMTKNQVSLSCLVKGFYPSDIAVEWESNGQPENNYKTTVPVLDSDGSFRLASYLTVDKSRWQQGNVFSCSVMHEALHNHYTQKSLSLSPGK
 | 35.2 |  | 22.5 | 01A09R3LS VHH Mono-Fc (Fc fusion) QVQLVESGGGLVQAGGSLRLSCAASGRSFSSYNMVWLRQAPGKEREVVAAVTWSGGGTSYADSVKGRFTISRDNANVRVYLQMTGLKPEDTAIYYCAATQDWYGGSRAFRAASFHSWGQGTLVTVSSSPAPELLGGPSVFLFPPKPKDTLMISRTPEVTCVVVDVSHEDPEVKFNWYVDGVEVHNAKTKPREEQYNSTYRVVSVLTVLHQDWLNGKEYKCKVSNKALPAPIEKTISKAKGQPREPQVYTKPPSREEMTKNQVSLSCLVKGFYPSDIAVEWESNGQPENNYKTTVPVLDSDGSFRLASYLTVDKSRWQQGNVFSCSVMHEALHNHYTQKSLSLSPGK
 | 12.8 |  | 19.9 | 01B11R3LS VHH Mono-Fc (Fc fusion) EVQLVESGGGVVQAEDSLRLSCAAPGLPFSSSRMGWFRQAPGKEREFVAAIGWSGRSTYRYYGDSVKGRFTVSGDNAKNTLDLQMKGLKPEDTAVYYCAADPDYYGDYRTSGAWRYWGQGTQVTVSSSPAPELLGGPSVFLFPPKPKDTLMISRTPEVTCVVVDVSHEDPEVKFNWYVDGVEVHNAKTKPREEQYNSTYRVVSVLTVLHQDWLNGKEYKCKVSNKALPAPIEKTISKAKGQPREPQVYTKPPSREEMTKNQVSLSCLVKGFYPSDIAVEWESNGQPENNYKTTVPVLDSDGSFRLASYLTVDKSRWQQGNVFSCSVMHEALHNHYTQKSLSLSPGK
 | 6.15 |  | 6.45 | 02F10R3 VHH Mono-Fc (Fc fusion) EVQLVESGGGLVQPGGSLRLSCVVSGSFFSLRDMGWYRQAPGKERELVGIFTRGGTTYYADSVKGRFTISRDNAKNTVDLQMNSLKPEDTAVYTCNAEIRQYSANLYRDFWGQGTQVTVSSSPAPELLGGPSVFLFPPKPKDTLMISRTPEVTCVVVDVSHEDPEVKFNWYVDGVEVHNAKTKPREEQYNSTYRVVSVLTVLHQDWLNGKEYKCKVSNKALPAPIEKTISKAKGQPREPQVYTKPPSREEMTKNQVSLSCLVKGFYPSDIAVEWESNGQPENNYKTTVPVLDSDGSFRLASYLTVDKSRWQQGNVFSCSVMHEALHNHYTQKSLSLSPGK

Reference: patent US20220112276A1 (Janssen / Centocor, published 2022)
